# Measured values: patent US6703362 (CYTOGEN, dated 2004)
# Read-outs that look alike come from different tables or passages of the source.
# T1: HPT1 receptor domain (human intestinal peptide-associated transporter HPT1, amino acid residues 29-273), … (human, UniProt Q12864 29-273)
# T1 construct: purified under denaturing conditions; also called recombinant HPT1; not shown: poly-histidine tag (pET vector) at the NH2-terminal end
# T1 sequence: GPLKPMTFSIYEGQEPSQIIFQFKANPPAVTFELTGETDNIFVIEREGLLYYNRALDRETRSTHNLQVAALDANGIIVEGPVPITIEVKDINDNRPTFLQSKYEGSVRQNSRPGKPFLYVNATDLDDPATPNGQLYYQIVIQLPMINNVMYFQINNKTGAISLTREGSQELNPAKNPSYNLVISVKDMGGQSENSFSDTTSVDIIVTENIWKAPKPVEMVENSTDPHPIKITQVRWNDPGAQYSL
# T2: D2H receptor domain (human D2H transporter, amino acid residues 387-685), His-tag fusion protein (human, UniProt Q07837 387-685)
# T2 construct: purified under denaturing conditions; also called recombinant D2H; not shown: poly-histidine tag (pET vector) at the NH2-terminal end
# T2 sequence: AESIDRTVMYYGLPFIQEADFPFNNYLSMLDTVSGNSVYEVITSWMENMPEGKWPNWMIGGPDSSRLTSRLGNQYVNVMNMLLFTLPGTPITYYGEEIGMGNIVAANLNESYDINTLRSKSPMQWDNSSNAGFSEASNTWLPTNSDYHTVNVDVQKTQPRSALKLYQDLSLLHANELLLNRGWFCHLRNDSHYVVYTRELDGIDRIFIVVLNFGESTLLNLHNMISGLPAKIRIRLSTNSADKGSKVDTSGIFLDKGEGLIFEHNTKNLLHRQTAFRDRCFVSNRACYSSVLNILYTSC
# B1: HAX42 (peptide)
# peptide: SDHALGTNLRSDNAKEPGDYNCCGNGNSTGRKVFNRRRPSAIPTAETVESCLAKPHTENSFTNVWKDDKTLDRYANYEGCLWNATGVVVCTGDETQCYGTWVPIGLAIPENEGGGSEGGGSEGGGSEGGGTKPPEYGDTPIPGYTYINPLDGTYPPGTEQNPANPNPSLEESQPLNTFMFQNNRFRNRQGALTVYTGTVTQGTDPVKTYYQYTPVSSKAMYDAYWNGKFRDCAFHSGFNEDPFVCEYQGQSSDLPQPPVNAGGGSGGGSGGGSEGGGSEGGGSEGGGSEGGGSGGGSGSGDFDYEKMANANKGAMTENADENALQSDAKGKLDSVATDYGAAIDGFIGDVSGLANGNGATGDFAGSNSQMAQVGDGDNSPLMNNFRQYLPSLPQSVECRPFVFSAGKPYEFSIDCDKINLFRGVFAFLLYVATFMYVFSTFANILRNKES
# notes: Assayed as M13 phage clone displaying the insert
# B2: DCX8 (peptide)
# peptide: RYKHDIGCDAGVDKKSSSVRGGCGAHSSPPRAGRGPRGTMVSRLAETVESCLAKPHTENSFTNVWKDDKTLDRYANYEGCLWNATGVVVCTGDETQCYGTWVPIGLAIPENEGGGSEGGGSEGGGSEGGGTKPPEYGDTPIPGYTYINPLDGTYPPGTEQNPANPNPSLEESQPLNTFMFQNNRFRNRQGALTVYTGTVTQGTDPVKTYYQYTPVSSKAMYDAYWNGKFRDCAFHSGFNEDPFVCEYQGQSSDLPQPPVNAGGGSGGGSGGGSEGGGSEGGGSEGGGSEGGGSGGGSGSGDFDYEKMANANKGAMTENADENALQSDAKGKLDSVATDYGAAIDGFIGDVSGLANGNGATGDFAGSNSQMAQVGDGDNSPLMNNFRQYLPSLPQSVECRPFVFSAGKPYEFSIDCDKINLFRGVFAFLLYVATFMYVFSTFANILRNKES
# notes: as for B1
# B3: DAX23 (peptide)
# peptide: REWRFAGPPLDLWAGPSLPSFNASSHPRALRTYWSQRPRAETVESCLAKPHTENSFTNVWKDDKTLDRYANYEGCLWNATGVVVCTGDETQCYGTWVPIGLAIPENEGGGSEGGGSEGGGSEGGGTKPPEYGDTPIPGYTYINPLDGTYPPGTEQNPANPNPSLEESQPLNTFMFQNNRFRNRQGALTVYTGTVTQGTDPVKTYYQYTPVSSKAMYDAYWNGKFRDCAFHSGFNEDPFVCEYQGQSSDLPQPPVNAGGGSGGGSGGGSEGGGSEGGGSEGGGSEGGGSGGGSGSGDFDYEKMANANKGAMTENADENALQSDAKGKLDSVATDYGAAIDGFIGDVSGLANGNGATGDFAGSNSQMAQVGDGDNSPLMNNFRQYLPSLPQSVECRPFVFSAGKPYEFSIDCDKINLFRGVFAFLLYVATFMYVFSTFANILRNKES
# notes: as for B1
# B4: DAB10 (peptide)
# peptide: SKSGEGGDSSRGETGWARVRSHAMTAGRFRWYNQLPSDRAETVESCLAKPHTENSFTNVWKDDKTLDRYANYEGCLWNATGVVVCTGDETQCYGTWVPIGLAIPENEGGGSEGGGSEGGGSEGGGTKPPEYGDTPIPGYTYINPLDGTYPPGTEQNPANPNPSLEESQPLNTFMFQNNRFRNRQGALTVYTGTVTQGTDPVKTYYQYTPVSSKAMYDAYWNGKFRDCAFHSGFNEDPFVCEYQGQSSDLPQPPVNAGGGSGGGSGGGSEGGGSEGGGSEGGGSEGGGSGGGSGSGDFDYEKMANANKGAMTENADENALQSDAKGKLDSVATDYGAAIDGFIGDVSGLANGNGATGDFAGSNSQMAQVGDGDNSPLMNNFRQYLPSLPQSVECRPFVFSAGKPYEFSIDCDKINLFRGVFAFLLYVATFMYVFSTFANILRNKES
# notes: as for B1
# B5: HAX40 (peptide)
# peptide: REFAERRLWGCDDLSWRLDAEGCGPTPSNRAVKHRKPRPRSPALAETVESCLAKPHTENSFTNVWKDDKTLDRYANYEGCLWNATGVVVCTGDETQCYGTWVPIGLAIPENEGGGSEGGGSEGGGSEGGGTKPPEYGDTPIPGYTYINPLDGTYPPGTEQNPANPNPSLEESQPLNTFMFQNNRFRNRQGALTVYTGTVTQGTDPVKTYYQYTPVSSKAMYDAYWNGKFRDCAFHSGFNEDPFVCEYQGQSSDLPQPPVNAGGGSGGGSGGGSEGGGSEGGGSEGGGSEGGGSGGGSGSGDFDYEKMANANKGAMTENADENALQSDAKGKLDSVATDYGAAIDGFIGDVSGLANGNGATGDFAGSNSQMAQVGDGDNSPLMNNFRQYLPSLPQSVECRPFVFSAGKPYEFSIDCDKINLFRGVFAFLLYVATFMYVFSTFANILRNKES
# notes: Assayed as M13 phage clone displaying the insert; also called H44
# B6: DCX11 (peptide)
# peptide: SQGSKQCMQYRTGRLTVGSEYGCGMNPARHATPAYPARLLPRYRAETVESCLAKPHTENSFTNVWKDDKTLDRYANYEGCLWNATGVVVCTGDETQCYGTWVPIGLAIPENEGGGSEGGGSEGGGSEGGGTKPPEYGDTPIPGYTYINPLDGTYPPGTEQNPANPNPSLEESQPLNTFMFQNNRFRNRQGALTVYTGTVTQGTDPVKTYYQYTPVSSKAMYDAYWNGKFRDCAFHSGFNEDPFVCEYQGQSSDLPQPPVNAGGGSGGGSGGGSEGGGSEGGGSEGGGSEGGGSGGGSGSGDFDYEKMANANKGAMTENADENALQSDAKGKLDSVATDYGAAIDGFIGDVSGLANGNGATGDFAGSNSQMAQVGDGDNSPLMNNFRQYLPSLPQSVECRPFVFSAGKPYEFSIDCDKINLFRGVFAFLLYVATFMYVFSTFANILRNKES
# notes: as for B1
# Assays:
# [1] = biological target: T1, HPT1 receptor domain (human intestinal …); assay: phage ELISA, OD on HPT1 over OD on BSA
# Method: (§1) 6.6. Receptor ELISA Procedure 96 well plates were coated overnight with GIT receptor, BSA and, optionally, IDE (insulin degrading enzyme, an irrelevant His-fusion protein)or hTF. The plates were blocked for one hour with 0.5% BSA-PBS. After clarification, the amplified phage were diluted 1:100 in […] plus 0.05% Tween 20 in PBS and added to the plates. Following incubation of the plates on a rotator for 1 to 2 hours, the plates were washed 5 times with 1% BSA plus 0.05% Tween 20 in PBS. […] After the plates were washed 5 times, as described above, TMB substrate was added to the wells. The plates were read at 650 nm absorbance.
# [2] = biological target: T1, HPT1 receptor domain (human intestinal …); assay: phage ELISA, plate coated with HPT1 domain
# Method: as §1
# [3] = biological target: T2, D2H receptor domain (human D2H …); assay: phage ELISA, OD on D2H over OD on BSA
# Method: as §1
# (§2) Binding to fixed Caco-2 cells, D2H and BSA was examined.
# [4] = biological target: T2, D2H receptor domain (human D2H …); assay: phage ELISA, plate coated with D2H domain
# Method: as §1, §2
# [5] = biological target: T2, D2H receptor domain (human D2H …); assay: phage ELISA, OD on D2H over OD on BSA; remark: listed apart in the source
# Method: as §1
# [6] = biological target: T2, D2H receptor domain (human D2H …); assay: phage ELISA, plate coated with D2H domain; remark: listed apart in the source
# Method: as §1
Binder,HPT/BSA [1] [ratio],OD [2] [OD],D2H/BSA [3] [ratio],OD [4] [OD],D2H/BSA [5] [ratio],OD [6] [OD]
B1,5,0.32,,,,
B2,,,3,0.163,,
B3,,,,,5,0.698
B4,,,,,4,0.644
B5,15,0.991,,,,
B6,,,3,0.222,,
